Results on three proteins are retold here after patent US11491212.

The target in data set [1] is plasma purified human AT-III (antithrombin III), in complex with low molecular weight heparin.
In data set [2] the target is Antithrombin III (plasma purified human AT-III) in complex with unfractionated heparin. The experiment in a line: ratio of K0.5 of variant to K0.5 of Catalyst Biosciences WT FIXa, AT-III/UFH inhibition assay.

Factor X, P00742, sequence (P00742 whole entry, looked up): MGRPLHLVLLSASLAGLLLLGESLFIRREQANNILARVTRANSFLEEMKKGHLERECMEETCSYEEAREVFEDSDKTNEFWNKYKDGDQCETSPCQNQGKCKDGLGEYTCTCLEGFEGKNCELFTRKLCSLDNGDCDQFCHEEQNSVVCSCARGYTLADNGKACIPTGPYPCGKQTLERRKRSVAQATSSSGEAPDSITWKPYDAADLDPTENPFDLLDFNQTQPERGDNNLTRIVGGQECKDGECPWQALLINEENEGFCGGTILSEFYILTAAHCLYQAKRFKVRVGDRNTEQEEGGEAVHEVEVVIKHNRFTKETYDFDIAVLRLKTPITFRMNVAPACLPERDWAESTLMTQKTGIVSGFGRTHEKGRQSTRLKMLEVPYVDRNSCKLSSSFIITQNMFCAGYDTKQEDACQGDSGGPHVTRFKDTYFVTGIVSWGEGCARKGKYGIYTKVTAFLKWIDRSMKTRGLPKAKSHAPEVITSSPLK
Factor X (FX), P00742, sequence (P00742 whole entry, looked up): as above

B1: FIXa-K293A/R338A/R403A (protein)
chain 1: not shown
chain 2: not shown
A word on the KM: it is the concentration of substrate that gives half-maximal velocity. B1 displayed a K0.5-mut/K0.5-wt (against Catalyst Biosciences WT FIXa), AT-III/LMWH in data set [1] of 16.9 fold. Besides, the KM of FX activation by FIXa in the Xase complex (FVIIIa, PC/PS vesicles, Ca2+); fluorogenic Spectrafluor FXa assay with Factor X, P00742 amounted to 0.0654 µM. Besides, in the data set with Factor X (FX), P00742, the KM was 0.0654 µM.

B2: FIXa-K293E/R338E/R403E (protein)
chain 1: not shown
chain 2: not shown
The protein B2 yielded a K0.5-mut/K0.5-wt (against Catalyst Biosciences WT FIXa), AT-III/LMWH in data set [1] of 14.2 fold. Besides, the KM of FX activation by FIXa in the Xase complex (FVIIIa, PC/PS vesicles, Ca2+); fluorogenic Spectrafluor FXa assay with Factor X, P00742 is 0.05 µM. In addition, the KM with Factor X (FX), P00742 worked out at 0.05 µM.

B3: FIXa variant R318Y/R338E/E410N/T412V (protein)
chain 1: not shown
chain 2: not shown
B3: in data set [2], the K0.5-mut/K0.5-wt is more than 517.
